The target in this series is Dlx5[Q178P] homeodomain (Homo sapiens, UniProt P56178 137-198, Q178P). The series can be described thus: CD thermal denaturation.
Chain of Dlx5[Q178P] homeodomain (P56178 137-198 Q178P): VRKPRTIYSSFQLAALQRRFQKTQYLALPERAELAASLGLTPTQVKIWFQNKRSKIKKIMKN

B1: 14-bp palindromic TAAT duplex (dsDNA)
DNA 1: CGACTAATTAGTCG
DNA 2: CGACTAATTAGTCG
As for B1, the binding result is “binds”.
